Data from US20170029474A1.
Where two headings read alike, the source gives them in different places.

Columns and labels:
Recombinant HB-EGF [1] = biological target: Recombinant HB-EGF (UniProt Q99075); experiment: cell-based or functional assay
[2] = biological target: C-terminal His-tagged HB-EGF lacking the heparin-binding domain (UniProt Q99075); experiment: SPR, Biacore T200, His-tagged HB-EGF captured on NTA chip
Recombinant HB-EGF [3] = biological target: Recombinant HB-EGF (UniProt Q99075); experiment: cell-based or functional assay; remark: listed apart in the source

Chain of Recombinant HB-EGF (Q99075 63-148 limits assumed): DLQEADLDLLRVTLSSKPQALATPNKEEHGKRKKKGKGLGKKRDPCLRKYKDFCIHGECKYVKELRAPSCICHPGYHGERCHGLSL
Chain of C-terminal His-tagged HB-EGF lacking the heparin-binding domain (Q99075 other isoform, or with tags, fused parts or gaps limits assumed): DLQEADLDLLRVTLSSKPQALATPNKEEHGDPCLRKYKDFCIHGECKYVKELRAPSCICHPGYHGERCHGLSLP

Row | Substance | DER cell assay ID50 (Recombinant HB-EGF [1]) [nM] | ID50 [nM], HB-EGF-dependent growth of DER cells (Recombinant HB-EGF [1]) [nM] | Relative values (KA, against CRM197) (relative to CRM197) [2] | DER cell assay ID50 (Recombinant HB-EGF [3]) [nM] | DER cell assay Relative values (relative to CRM197) (Recombinant HB-EGF [3])
1 | CRM197 (from UniProt P00587 26-560) | 1.2 | 1.2 | 1 | 1.02 | 1
2 | MBP-R (D507N) (from UniProt P00587 405-560) | – | 4.5 | – | – | –
3 | MBP-R (H520K) (from UniProt P00587 405-560) | – | 6 | – | – | –
4 | MBP-R (V468T) (from UniProt P00587 405-560) | – | 6.2 | – | – | –
